Data on one molecule can be found in patent publication US20090269346A1 (RAPTOR PHARMACEUTICAL, published 2009).

Substitutions are numbered along the chain they refer to. Some results are limits rather than exact numbers.

Assay [1] addresses T1, LRP1 CR3-5 (human).
T1 construct: range 852-973; Amplified from human cDNA; also called L1 CR3-5
The experiment in a line: solid-phase assay, coated CR protein, anti-RAP, OD450. The method, then:
(§1) Solid phase binding assays-Purified, refolded CR protein (1 μg) was bound to Nunc Maxisorp™ 96-well plates in TBS pH 8 supplemented with 5 mM CaCl₂ (TBSC) overnight at 4° C. Wells were washed with TBSC and then blocked with TBSC containing 2% bovine serum albumin (BSA). RAP ligands were then incubated with the immobilized receptor at a range of concentrations for 2 hours in the above blocking buffer supplemented with 0.05% Tween-20 at room temperature. Control wells contained no added ligand. As an additional control, to determine whether the absence of calcium affected binding, 10 mM EGTA was included in the incubation medium for some samples. Wells were washed with TBSTC and bound ligands detected with polyclonal anti-RAP (BP41/42, 1:1,000, BioMarin). Excess primary antibody was removed and wells washed before incubation with the secondary antibody, HRP-conjugated goat anti rabbit IgG (Bio-Rad). After washing, TMB substrate solutions (Bio-Rad) were added to detect HRP. Color development was stopped with 1N HCl. Absorption at 450 nm was measured with a microplate spectrophotometer (Molecular Devices). Data were plotted and Kd values derived by non-linear regression with the assumption of single-site binding (GraphPad Prism).
(§2) Additional assays were performed to assess the binding of wild-type RAP d3 (SEQ ID NO: 92) to each CR pair or set of overlapping pairs was then measured by solid-phase assay (FIG. 5B). Diluted samples were incubated with each test protein, immobilized in multiwell plates. Binding assays were performed as described in Methods. Two independent experiments were performed with triplicate wells for each sample. Means and standard deviations were calculated from the combined values from both experiments and plotted against ligand concentration. Curves were fitted using non-linear regression with a single-site binding model (GraphPad Prism). Kd values with standard deviations were derived from the fitted curves. In all cases, 10 mM EGTA removed >85% of the mean binding signal at the highest concentration of ligand tested.

In assay [2] the target is T2, LRP2 CR89 (human, UniProt P98164 1025-1102).
T2 construct: domain: CR8 and CR9; also called YVWR; L2 CR89; not shown: N-terminal hexahistidine and S-peptide from pET30(+)a
T2 sequence (P98164 1025-1102): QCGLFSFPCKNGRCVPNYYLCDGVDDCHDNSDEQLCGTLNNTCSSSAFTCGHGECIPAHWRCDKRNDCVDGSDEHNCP
The assay is described as above. The method, then: as §1, §2

Assay [3] has as its target T3, VLDLR CR6-8 (human, UniProt P98155 235-358).
T3 construct: range 235-358; also called V CR6-8; not shown: N-terminal hexahistidine and S-peptide from pET30(+)a
Described as above. Here is the method:
as §1, §2

Assay [4] deals with T1, LRP1 CR3-5. The assay is described as above. The method, then: (§3) Percent of maximum binding is the ratio of the OD at the highest concentration tested for each ligand and the highest OD measured for all such ligands at that concentration.
as §1
(§4) Next, binding of RAP d3 and RAPv2A d3 proteins to LRP1 CR3-5 and LRP2 CR89 was assessed. In order to understand the relative contributions of each RAPv2A d3 mutation to differences in affinity, we also prepared a number of RAPv2A d3 revertants and RAP d3 forward mutants, all comprising sequence variants intermediate between RAPv2A d3 and wild-type RAP d3 (FIGS. 7A and B, Table 1). Samples were tested in triplicate and experiments were repeated at least once. Values from different experiments were combined and a single mean and standard deviation obtained for each concentration of ligand tested.
This is another data set of the same source.

In assay [5] the target is T2, LRP2 CR89. The assay is described as above. The method, then:
as §3, §1, §4
This is another data set of the same source.

The target in assay [6] is T1, LRP1 CR3-5. The experiment in a line: solid-phase assay, coated CR protein, anti-RAP, OD450; apparent Kd repeated from Table 1; unit inferred, nM taken from paragraph 284.
Assay [7] has as its target T4, LRP2 CR89 R1088D (human, UniProt P98164 1022-1105).
T4 construct: also called YVWD
The experiment in a line: solid-phase binding assay: CR protein coated on the plate, ligand titrated, anti-RAP polyclonal and HRP secondary, OD 450 nm. Here is the method:
as §1
(§5) One premise of this work was that amino acids at A, C, A′ and C′ within the calcium-binding loops of a CR pair were key determinants of binding affinity for RAP and would be similarly important for binding of RAP variants. To test this idea, we prepared mutants of LRP2 CR89 in which the native, non-canonical residues at these positions were sequentially substituted with the non-native, canonical residues. As defined above, the A, C, A′, C′ string for LRP2 CR89 is YVWR. Mutants included LRP2 CR89 Y1042W (WVWR), LRP2 CR89 V1047D (YDWR), LRP2 CR89 R1088D (YVWD), LRP2 CR89 V1047D R1088D (YDWD), LRP2 CR89 Y1042W V1047D R1088D (WDWD), LRP2 CR89 Y1042W V1047D (WDWR), LRP2 CR89 Y1042W R1088D (WVWD). Binding to both RAP d3 and RAPv2A d3 were measured for each LRP2 CR89 mutant by solid-phase assay. Samples were tested in triplicate. OD values from uncoated wells, receptor-coated wells incubated with buffer alone, and uncoated wells incubated with the highest ligand concentration all gave similar values for all conditions tested.

Assay [8] concerns the target T5, LRP2 CR89 V1047D R1088D (human, UniProt P98164 1022-1105).
T5 construct: also called YDWD
T5 chain: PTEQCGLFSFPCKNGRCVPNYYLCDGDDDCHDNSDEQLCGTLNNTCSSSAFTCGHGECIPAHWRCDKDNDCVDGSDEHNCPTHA
The description is as above. The method, then: as §1, §5

Assay [9] has as its target T6, LRP2 CR89 V1047D (human, UniProt P98164 1022-1105).
T6 construct: also called YDWR
T6 chain: T5 chain with D68R
Described as above. Here is the method:
as §1, §5

For assay [10], the target named is T7, LRP2 CR89 Y1042W (human, UniProt P98164 1022-1105).
T7 construct: also called WVWR
T7 chain: T5 chain with Y22W, D27V, D68R
The description is as above. Here is the method: as §1, §5

T1 sequence (Q07954 852-973): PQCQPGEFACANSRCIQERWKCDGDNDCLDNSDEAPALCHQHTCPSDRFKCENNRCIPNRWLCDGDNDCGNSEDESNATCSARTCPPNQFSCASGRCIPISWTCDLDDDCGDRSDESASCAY

B1: wild-type RAP d3 (ligand)
chain: LDRLRRVSHQGYSTEAEFEEPRVIDLWDLEQSANLTDKELEAFREELKHFEAKIEKHNHYQKQLEIAHEKLRHAESVGDGERVSRSREKHALLEGRTKELGYTVKKHLQDLSGRISRAR
notes: expressed in E. coli from pET30(+)a; not shown: vector-encoded N-terminal tags of pET30(+)a (hexahistidine and S-peptide, as stated for the CR constructs)
On to B1, for which the Kd in assay [1] is 11 nM; in [2], more than 300 nM; in [3], more than 300 nM; in [4], 16 nM; in assay [6], 16 nM. Further, the “% max (percent of maximum binding)” value is 76% in assay [4] and 5% in assay [5]. Besides, the binding result in assay [7], in assay [8], in assay [9] and in assay [10] was “no binding (tested: 100 nM)” each time.
